Assay results as given in the supplement of paper PMC10567573.

B1: KCNAB2 (parent)
chain: YVDVVFANRPDPNTPMEETVRAMT

Variants of: B1
Assay: protein stability index of a GFP-peptide fusion (GPS, HEK-293T) (PSI 1-6); higher = more stable
Conditions: c terminus: a fixed tail appended
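Note: lentivirally expressed fusions sorted by FACS into six bins by GFP to DsRed ratio, PSI derived from sequencing read proportions per bin multiplied by bin number.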

Protein stability index, by site and new letter:
A22: R 1.89 | Q 1.85 | C 2.26 | M 2.32 | I 1.72 | Y 1.73 | E 1.6 | T 1.33 | G 1.74 | L 1.98 | D 2.67 | V 2.29 | P 1.69 | N 2.13 | S 1.76 | H 2.27 | K 2.08 | F 2.28 | W 2.49
T24: I 1.78 | E 1.86 | C 1.98 | D 1.46 | H 1.74 | K 1.82 | F 3.03 | G 1.35
P15: S 2.69 | Q 2.1 | I 1.9 | A 2.34 | L 2.44 | C 2.67 | K 2.72 | N 1.97 | T 1.94 | E 1.73 | V 1.87 | G 1.91 | Y 2.21 | F 2.47 | H 1.35 | D 1.49 | M 2.28 | W 1.78 | R 2.52
E17: C 1.62 | G 2.72 | I 1.58 | L 1.64 | R 2.29 | V 2.06 | Q 2.14 | W 3.15 | P 2.17 | T 2.84 | H 2.85 | A 1.86 | D 2.12 | S 1.2 | M 2.65 | N 2.76 | K 2.62 | Y 2.5
T14: F 2.32 | D 1.69 | L 2.37 | P 2.51 | N 3.02 | I 3.12 | C 1.99 | V 1.56 | K 2.2 | A 1.84 | M 2.65 | R 2.23 | W 1.54 | Q 2.12 | Y 2.4 | H 2.77 | G 2.04 | S 1.93 | E 1.7
N13: I 2.76 | C 1.89 | Q 2.11 | V 2.44 | A 2 | F 2.09 | E 2.5 | M 1.98 | H 2.15 | R 1.98 | L 1.96 | T 1.3 | G 2.14 | Y 2.31 | D 2.29 | S 2.34 | W 2.88 | K 2.18
P12: F 2.02 | R 1.46 | S 1.66 | T 1.56 | N 1.28 | E 1.65 | V 2.72 | W 2.04 | A 2.27 | L 2.51 | I 1.83 | M 2.03 | D 1.65 | G 2.31 | Q 2.43 | Y 2.72 | H 1.37 | K 2.16 | C 2.08
M23: L 2.57 | V 1.78 | I 1.82 | E 1.86 | R 2.81 | D 1.61 | K 1.82 | Q 1.41 | A 2.16 | W 2.06 | S 1.58 | F 2.03 | G 1.56 | Y 2.13 | H 1.66 | C 2.04 | P 2.14 | N 1.8
V20: P 1.86 | F 1.64 | W 2.74 | M 1.71 | N 1.92 | S 2.06 | G 2.07 | K 1.59 | T 1.81 | C 1.99 | Y 1.8 | A 1.82 | I 1.87 | Q 1.82 | R 1.82 | E 1.76 | H 1.81 | D 1.76 | L 2.58
F6: S 2.79 | T 3.11 | R 2.05 | V 1.94 | W 3.77 | Y 2.13
A7: L 1.98 | W 2.45 | P 2.14 | S 2.13 | Q 2.15 | K 1.64 | I 1.88 | Y 2.64 | M 2.16 | N 1.97 | R 1.97 | G 2.2 | T 2.12 | F 3.08 | V 3.18 | D 2.02 | E 2.19 | C 1.74 | H 2.09
D11: E 1.6 | H 2.28 | R 1.47 | A 2.79 | G 2.19 | I 2.2 | C 1.77 | S 1.39 | F 2.46 | W 1.94 | P 1.67 | V 2.53 | Q 2.5 | K 2.05 | M 2.04 | T 2.76 | L 1.89 | Y 2.42 | N 1.67
R9: N 2.22 | P 2.84 | Y 1.47 | C 1.6 | A 1.78 | M 2.67 | Q 1.98 | E 2.15 | W 2.72 | L 2.27 | K 1.69 | V 2.96 | D 2.71 | I 2.07 | H 1.66 | G 2.17 | S 2.76 | F 2.02 | T 1.7
T19: F 1.66 | G 1.9 | E 1.71 | R 1.66 | H 2.1 | C 1.46 | N 2 | A 1.86 | I 1.85 | L 1.89 | W 1.85 | S 1.93 | K 2.41 | Q 1.9 | D 2.07 | V 2.01 | P 1.61 | M 1.79 | Y 1.62
P10: G 2.65 | H 2.12 | F 2.8 | Q 1.73 | K 2.27 | D 2.47 | C 2.43 | Y 1.69 | I 2.2 | R 2.13 | T 2.17 | L 2.7 | V 1.82 | A 1.84 | M 2.62 | W 3.14 | E 2.13 | N 2.06 | S 1.38
E18: N 1.83 | P 2.27 | V 2.43 | D 2.04 | H 2.97 | I 2.98 | S 1.99 | M 3.06 | Y 2.64 | F 2.1 | W 1.85 | C 2.02 | Q 2.09 | T 1.64 | G 1.75 | A 2.67 | K 2.75 | R 2.1 | L 2.56
M16: S 2.42 | P 1.91 | N 2.2 | Q 2.27 | V 1.65 | W 2.2 | C 1.82 | E 2.02 | G 1.95 | R 2.54 | F 1.77 | T 1.33 | H 1.93 | Y 2.18 | A 1.8 | L 1.86 | D 1.77 | I 1.64 | K 1.8
N8: V 1.83 | D 1.79 | S 2.33 | Q 1.9 | R 2.3 | W 2.85 | C 2.94 | E 2.14 | L 2.61 | T 2.68 | G 1.83 | I 2.35 | M 3.09 | P 1.82 | K 1.7 | H 1.76 | F 2.85 | Y 2.88 | A 2.69
R21: Q 2.18 | C 1.5 | A 1.84 | I 2.15 | T 1.96 | L 2.64 | V 1.58 | F 2.78 | N 2.33 | S 1.77 | H 2.22 | P 2.1 | W 2.27 | D 1.56 | E 2.27 | G 2.37 | M 1.56 | Y 1.87 | K 2.35
